Target: 3ftt-wt, wild-type trimeric protein from which T3-08 was derived (PDB ID 3FTT), C-terminal (His)6 construct
Experiment: SEC

Chain of 3ftt-wt, wild-type trimeric protein from which T3-08 was derived (PDB ID 3FTT), C-terminal (His)6 construct (Q5HCZ5 whole entry): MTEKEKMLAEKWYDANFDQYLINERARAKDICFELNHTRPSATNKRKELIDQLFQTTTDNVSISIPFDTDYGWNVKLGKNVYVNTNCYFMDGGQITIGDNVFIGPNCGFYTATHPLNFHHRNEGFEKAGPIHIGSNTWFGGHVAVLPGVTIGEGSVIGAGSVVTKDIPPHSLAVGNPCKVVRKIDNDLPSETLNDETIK

3ftt-wt, wild-type trimeric protein from which T3-08 was derived (PDB ID 3FTT), C-terminal (His)6 construct (natural protein)
stoichiometry N: 3 subunits
